The MegaScale stability set (Tsuboyama et al. 2023)

B1: HHH_rd1_0493 (parent)
chain: RDEDEKEKIKEALKRGNEDKAKEIAKRANVSPEEYERLRKEAE

Variants of: B1
Assay: folding stability dG (cDNA display proteolysis); higher = more stable
Conditions: PBS, room temperature

Folding stability dG [kcal/mol] of substitutions, site by site:
R37: N 2.35, K 2.68, W 2.16, I 2.44, H 2.12, T 2.22, V 2.24, F 2.15, Y 2.05, L 2.42, Q 2.63, E 2.4, G 1.77, D 2.02, A 2.51, S 2.27, M 2.49, P -0.529
E33: R 1.99, M 2.33, T 2.33, L 2.27, N 2.07, S 2.43, W 2.06, H 2.03, C 2.29, G 2.25, F 1.96, K 2.04, I 2.19, D 2.64, Y 1.92, V 2.22, Q 2.58, P 1.57, A 2.69
R39: S 2.1, T 1.89, Y 1.87, E 1.77, W 2.02, A 2.37, F 1.95, G 1.16, C 1.52, N 1.18, K 2.99, Q 2.2, L 2.17, H 1.8, M 2.1, D 0.392, P 0.097, V 2.65, I 2.09
K26: P 0.553, N 2.64, I 2.91, T 2.79, R 3.1, Q 2.99, Y 2.35, V 2.73, E 2.83, F 2.47, A 3.03, M 2.91, H 2.74, G 2.31, D 2.71, W 2.01, L 3.05, S 2.75
L38: E 0.322, G 0.162, C 1.29, M 2.26, S 0.378, K 0.318, Y 1.85, T 0.593, N 0.332, Q 0.492, R 0.571, F 1.58, V 1.23, D 0.129, P -0.019, H 0.352, W 1.78, I 2.76, A 0.829
E41: Y 1.63, M 2.58, N 1.77, T 1.97, P 0.8, A 2.55, F 1.84, R 2.07, D 2.35, V 2.15, L 2.63, W 2.38, I 2.38, C 1.88, Q 2.77, S 2.05, G 1.59, H 1.7, K 1.99
E34: R -0.261, D 2.42, G 1.06, A 1.69, H 0.903, L 1.56, Y 0.926, I 1.79, N 0.916, V 1.81, F 0.766, K -0.215, M 1.72, C 1.85, T 1.51, W 1.1, S 1.14, Q 1.68
R27: M 2.61, E 2.71, Y 2.21, Q 2.83, I 2.65, W 2, P 0.689, L 2.82, G 2.36, V 2.42, H 2.61, C 2, T 2.51, S 2.68, D 2.26, F 2.01, N 2.83, K 2.93, A 3.04
P32: L 2.83, V 2.74, C 2.07, F 2.76, N 2.63, I 2.77, Q 2.8, A 3.03, W 2.92, K 2.65, G 2.37, S 2.67, T 2.61, E 2.85, D 3.02, R 2.73, Y 2.7, M 2.79, H 2.7
A25: T 1.01, W -0.051, V 1.37, Y 0.541
E36: V 1.5, Q 2.11, I 1.88, N 2.19, M 2.24, L 2.24, W 1.68, R 1.67, A 2.31, T 1.7, K 1.49, S 1.75, Y 1.52, G 1.13, D 2.7, F 1.6, H 1.75, C 2.86, P 0.261
N29: Q 2.62, Y 1.9, V 1.41, I 1.23, F 2.29, W 1.51, E 2.29, S 2.42, R 2.55, L 2.22, K 2.74, C 1.83, A 2.34, H 2.67, D 2.39, T 1.58, G 3.3, P 0.97, M 2.51
E43: H 2.77, P 1.3, G 2.47, L 3.33, N 2.59, D 2.56, F 3.37, Q 3.02, K 2.64, I 3.07, A 2.94, M 3.31, C 2.61
V30: L 3.09, R 0.486, K 0.917, Q 0.766, M 2.89, S 0.63, E 0.435, W 1.73, G 0.389, D 0.32, F 2.3, A 0.849, H 0.486, P 0.301, N 0.389, T 1.84, C 1.69, Y 1.84, I 3.41
S31: F 1.4, V 1.66, K 2.07, N 2.39, L 2.21, P 2.65, M 2.11, C 1.74, H 1.95, Q 2.19, W 1.27, D 2.6, E 2.17, R 1.87, Y 1.3, G 2.94, A 2.45, T 3.03, I 1.44
A28: M 2.64, F 2.91, E 1.96, K 1.82, N 2.9, S 2.51, I 2.98, P 0.576, R 1.84, Y 3.02, Q 2.23, L 3.25, H 2.83, G 2.32, D 1.36, V 2.32, C 2.78, W 2.25, T 2.25
A42: T 2.31, E 1.25, R 1.21, V 3.33, S 2.37, I 2.87, F 2.29, K 1.03, L 2.54, G 1.62, Q 1.88, N 1.81, P 0.795, H 1.55, M 2.51, Y 2.14, D 0.965, W 2.2
Y35: C 0.708, M 2.29, K 0.009, A 0.298, S 0.291, E 0.245, I 1.39, L 2.26, F 3.53, H 0.142, W 2.58, V 1.59, D 0.022, G -0.05, T 0.361, Q 0.44, N -0.057, R 0.281
K40: N 2.72, V 3.01, M 3.2, D 2.63, T 2.8, Q 3.26, L 3.21, I 3.16, E 2.98, W 3.23, Y 2.89, H 3.01, S 2.9, G 2.62, P 0.577, A 3.15, F 2.8, R 3.33
